# Assay results as given in patent publication US20020146750A1 (published 2002).
# Numbering of substitutions follows the chain as printed.
# B1: 7D1 (Fab, V domains shown)
# VH: QVQLVQSGGGLVQPGGSLRLSCAASGFTFRSNAMGWVRQAPGKGLEWVSGISGSGGSTYYADSVKGRFTISRDNSKNTLYLQMNSLRAEDTAVYYCAKHTGGGVWDPIKHWGQGTLVTVSS
# VL: EIVLTQSPLSLPVTPGEPASISCRSSQSLLHSNGYTYLDWYLQKPGQSPQLLIYSGSHRASGVPDRFSGSVSGTDFTLRISRVEAEDVGVYYCMQGLQSPFTFGPGTKVDIKR
# notes: PH1 Fab variant; also called clone 7D1
# B2: 7F9 (Fab, V domains shown)
# VH: B1 VH with K109G, H110Y
# VL: B1 VL
# notes: PH1 Fab variant; also called clone 7F9
# B3: 7F3 (Fab, V domains shown)
# VH: B1 VH with K98I, H110Y
# VL: B1 VL
# notes: PH1 Fab variant; also called clone 7F3
# Target: T1, MUC1 (mucin-1) on MUC1-expressing cells (human, UniProt P15941 24-1255, underglycosylated / partially glycosylated tumor-associated glycoforms)
# T1 construct: whole, on cells; also called cellular MUC1; tumor-associated MUC1
# T1 sequence (P15941 24-1255): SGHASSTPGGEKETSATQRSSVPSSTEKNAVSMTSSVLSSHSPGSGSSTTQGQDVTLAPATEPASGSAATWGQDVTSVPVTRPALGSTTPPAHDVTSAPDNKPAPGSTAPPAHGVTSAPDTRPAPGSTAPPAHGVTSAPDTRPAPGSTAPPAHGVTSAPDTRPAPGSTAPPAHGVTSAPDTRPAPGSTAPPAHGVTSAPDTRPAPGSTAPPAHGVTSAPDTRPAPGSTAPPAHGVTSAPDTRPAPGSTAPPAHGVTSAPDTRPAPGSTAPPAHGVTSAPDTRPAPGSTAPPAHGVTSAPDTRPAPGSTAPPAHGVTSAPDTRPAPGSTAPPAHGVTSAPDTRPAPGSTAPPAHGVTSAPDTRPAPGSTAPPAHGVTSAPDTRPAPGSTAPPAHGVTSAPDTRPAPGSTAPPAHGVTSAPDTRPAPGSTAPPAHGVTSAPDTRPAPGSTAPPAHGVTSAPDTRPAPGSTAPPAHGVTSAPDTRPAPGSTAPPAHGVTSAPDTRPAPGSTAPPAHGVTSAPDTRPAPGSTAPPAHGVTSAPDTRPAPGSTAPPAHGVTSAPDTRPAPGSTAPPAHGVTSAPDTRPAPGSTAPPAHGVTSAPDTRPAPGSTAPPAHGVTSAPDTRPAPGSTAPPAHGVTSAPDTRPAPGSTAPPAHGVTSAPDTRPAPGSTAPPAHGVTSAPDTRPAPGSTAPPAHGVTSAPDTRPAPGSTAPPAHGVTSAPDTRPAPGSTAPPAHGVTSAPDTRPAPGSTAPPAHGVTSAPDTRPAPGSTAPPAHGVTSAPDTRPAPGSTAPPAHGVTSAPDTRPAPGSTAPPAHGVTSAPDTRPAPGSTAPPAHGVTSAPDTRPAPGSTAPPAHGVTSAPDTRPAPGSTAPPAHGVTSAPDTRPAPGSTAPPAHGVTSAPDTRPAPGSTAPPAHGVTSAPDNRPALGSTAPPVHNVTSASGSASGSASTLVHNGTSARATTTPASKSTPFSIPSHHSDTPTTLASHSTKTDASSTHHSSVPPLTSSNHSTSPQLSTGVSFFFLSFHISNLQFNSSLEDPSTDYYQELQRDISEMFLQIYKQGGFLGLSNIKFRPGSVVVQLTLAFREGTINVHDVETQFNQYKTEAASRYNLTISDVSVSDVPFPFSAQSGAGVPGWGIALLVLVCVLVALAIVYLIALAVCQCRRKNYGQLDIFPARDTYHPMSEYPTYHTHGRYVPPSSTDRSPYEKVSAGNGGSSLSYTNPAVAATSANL
# Assay: flow cytometry, purified Fab dilutions on cellular MUC1 (ETA cells); data not shown
# Description: Specific binding of the Fabs was measured by FACScalibur analysis (Becton Dickinson, Oxnard, Calif.) as described by Henderikx et al. (Cancer Res., 58: 4324-4332 (1998)). For affinity studies on cells with recombinant Fabs, the following flow cytometry experiment was carried out. Fab fragments were purified from the periplasmic fraction by IMAC and gel filtration as described in (Roovers et al., Br. J. Cancer, 78: 1407-1416 (1998)). Protein concentrations were measured with the bicinchoninic acid method (Sigma, St. Louis, Mo., USA). Two-fold serial dilutions of these Fabs were made and incubated, for each dilution point, with 2×10⁵/100 μl ETA cells (transfected 3T3 cells (Acres et al., J. Immunol., 14: 136-1443 (1993)). After trypsinisation, cells were washed one time in RPMI 10% FCS, 0.1% NaN₃ (incubation buffer). Then, cells were incubated with appropriate dilution for 1 hour at room temperature (RT), on a rotator. As negative controls, 2×10⁵ 3T3 mouse fibroblast cells were also incubated with the highest concentrations of antibodies. As a secondary negative control, ETA cells without primary antibody were used. Cells were spun down by centrifugation for 3 minutes at 611×g. Between incubations, cells were washed with incubation buffer. In a second incubation, anti-Myc antibody (6 μg/ml 9E10), directed against the Myc-tagged Fabs, was added for 30 minutes in incubation buffer at RT. After washing once, rabbit anti-mouse-FITC was used at RT for 30 minutes (Dako). Detection of bound antibodies was performed by means of flow cytometry on a FACSCalibur (Becton Dickinson, Oxnard), and results analyzed with the CELLQuest program (Becton Dickinson). Mean intensity was plotted against the concentration of the antibodies.
# The relative ranking of the three clones from highest to lowest affinity (i.e., 7D1>7F3>7F9) appear to have stayed the same, but the positioning of both the wild type clone PH1 and best BIAcore mutant 5C8 appearef to be different from what was expected on the basis of the BIAcore affinity.
row,Binder,binding result
1,B1,binds
2,B2,binds
3,B3,binds
